Experimental data as given in publication PMC7895871 (Protein & Cell, 2020).

Target: the molecule itself
Assay: cryo-EM structure; human MCU-EMRE-MICU1-MICU2 supercomplex co-expressed in HEK 293F, pulled down by C-terminally Strep-tagged EMRE; Titan Krios, K2; overall map 3.3–3.7 Å

B1: MCU (mitochondrial calcium uniporter), subunit of the human MCU-EMRE-MICU1-MICU2 supercomplex (MEMMS) (natural protein)
chain: DDVTVVYQNGLPVISVRLPSRRERCQFTLKPISDSVGVFLRQLQEEDRGIDRVAIYSPDGVRVAASTGIDLLLLDDFKLVINDLTYHVRPPKRDLLSHENAATLNDVKTLVQQLYTTLCIEQHQLNKERELIERLEDLKEQLAPLEKVRIEISRKAEKRTTLVLWGGLAYMATQFGILARLTWWEYSWDIMEPVTYFITYGSAMAMYAYFVMTRQEYVYPEARDRQYLLFFHKGAKKSRFDLEKYNQLKDAIAQAEMDLKRLRDPLQVHLPLRQIG
notes: MCU, human; pore-forming subunit with NTD, CCD and TMD; Four MCU subunits form one channel (tetramer); the supercomplex holds two such tetramers joined at the NTDs; Construct limits and any tags are in the supplementary Methods; source: HEK 293F cells transfected by BacMam viruses, co-expressed; complex pulled down by the C-terminally Strep-tagged EMRE
stoichiometry N: 4
